Paper PMC12002313 (Proceedings of the National Academy of Sciences of the …, 2025)

Assays:
[1] = target: PTg (genetically detoxified pertussis toxin) (Bordetella pertussis, UniProt P04978+P04979); format: binding
[2] = target: pertussis toxin (PT), enzymatically active holotoxin (Bordetella pertussis, strain of bought …, UniProt P04977;P04978;P04979;P0A3R5;P04981); test: ELISA
[3] = target: pertussis toxin S5 subunit, as it stands in PTg (Bordetella pertussis, UniProt P04981); test: cryo-EM structure
[4] = target: pertussis toxin S2 subunit, as it stands in PTg (Bordetella pertussis, UniProt P04978); test: cryo-EM structure
[5] = target: pertussis toxin S3 subunit, as it stands in PTg (Bordetella pertussis, UniProt P04979); test: cryo-EM structure

Question: `CC(=O)N[C@H]1[C@H]([C@H](O)[C@H](O)CO)O[C@@](O[C@H]2[C@@H](O)[C@@H](CO)O[C@@H](O[C@H]3[C@H](O[C@@H]4O[C@@H](C)[C@@H](O)[C@@H](O)[C@@H]4O)[C@@H](NC(C)=O)C(O)O[C@@H]3CO)[C@@H]2O)(C(=O)O)C[C@@H]1O` (stereo partly drawn) [sialyl Lewis^X blood group antigen, Neu5Acα2-3Galβ1-4(Fucα1-3)GlcNAc] was tested. Which RFU [1] did it give?
Answer: Its RFU is “PTg alone binds to sialylated N-glycans, asialo-N-glycans, and other carbohydrates (such as the sialyl Lewis^X”.

B1: hu1B7mut IgG (hu1B7 HC S56A, Q61A, Q64A) (antibody, V domains shown)
VH: QVQLVQSGAEVKKPGASVKVSCKASGYKFTSYWMHWVRQAPGQGLEWIGNIFPGSGATNYAAKFAGRVTLTVDTSTSTAYMELSSLRSEDTAVYYCTRWLSGAYFDYWGQGTTVTVSS
VL: QIVLTQSPATLSVSPGERVTLTCSASSSVSFMYWYQQKPGRAPKPLIYLTSNLPSGVPARFSGSGSGTSYTLTINSLEAEDAATYYCQQWSSHPPTFGSGTKLEIK
Question: Does B1 bind [2]?
Answer: Result: binds

B2: hu1B7 Fab (Fab, V domains shown)
VH: QVQLVQSGAEVKKPGASVKVSCKASGYKFTSYWMHWVRQAPGQGLEWIGNIFPGSGSTNYAQKFQGRVTLTVDTSTSTAYMELSSLRSEDTAVYYCTRWLSGAYFDYWGQGTTVTVSS
VL: QIVLTQSPATLSVSPGERVTLTCSASSSVSFMYWYQQKPGRAPKPLIYLTSNLPSGVPARFSGSGSGTSYTLTINSLEAEDAATYYCQQWSSHPPTFGSGTKLEIK
Question: Does B2 bind [3]?
Answer: Result: binds

B3: hu1B7 IgG (antibody, V domains shown)
VH: QVQLVQSGAEVKKPGASVKVSCKASGYKFTSYWMHWVRQAPGQGLEWIGNIFPGSGSTNYAQKFQGRVTLTVDTSTSTAYMELSSLRSEDTAVYYCTRWLSGAYFDYWGQGTTVTVSS
VL: QIVLTQSPATLSVSPGERVTLTCSASSSVSFMYWYQQKPGRAPKPLIYLTSNLPSGVPARFSGSGSGTSYTLTINSLEAEDAATYYCQQWSSHPPTFGSGTKLEIK
Question: Does B3 bind [2]?
Answer: Result: binds

B4: hu11E6 Fab (Fab, V domains shown)
VH: EVQVVESGGGLVQPGRSLRLSCTTSGFTFTDYYVSWVRQAPGKALEWLGFIRNKVNGYTTEFSSSVKGRFTISRDNSKSILYLQMNSLKIEDTAVYYCARVSYYGRGWYFDYWGQGTTLTVSS
VL: DIVMTQSPSSLSASVGDRVTISCRASQDIDNYLSWFQQKPGGTVKLLIYYTSRLHSGVPSRFSGSGSGTDYTLTISSLQPEDIATYFCQQGNTFPWTFGGGTKLEIK
Question: What does the source list for B4?
Answer: binding result [4]: binds; binding result [5]: binds
